Test results as given in US20150218534A1, “MODIFIED DNA POLYMERASE” (TOYOBO CO., LTD., priority 2012, published 2015).

Columns and labels:
[1] = system: Psychrobacter DNA; experiment: PCR amplification using inosine-containing primers; format: biochemical; settings: primers 75 pmol or 150 pmol, 35 cycles (FIG. 11)
Description: Using inosine-containing primers, the difference in PCR amplification was compared. For comparison, KOD mutants and KOD (wild-type), each mixed with 1 μg of a KOD antibody per U of the enzyme, and Taq DNA polymerase mixed with an antibody (a mixture of equal amounts of Taq DNA polymerase (produced by Toyobo Co. Ltd.) and Anti-Taq High (produced by Toyobo Co. Ltd.)) were used.
For PCR with the KOD mutants and PCR with the KOD, a buffer, MgSO4, and dNTPs included in KOD-Plus-Ver. 2 (produced by Toyobo Co. Ltd.) were used. 50 μl of individual reaction solutions containing 1× PCR buffer, 1.5 mM MgSO4, dNTPs (dATP, dTTP, dCTP, dGTP) in an amount of 0.2 mM, primers (SEQ ID NOs: 40 and 41) in an amount of 75 pmol or 150 pmol, 100 ng of Psychrobacter DNA, and 1 U of each respective enzyme mixed with the antibody were used. PCR was performed using a GeneAmp PCR system 9700 (Applied Biosystems) on the following schedule: preliminary reaction at 94° C. for 2 minutes, followed by 35 cycles, each cycle consisting of 98° C. for 10 seconds, 54° C. for 10 seconds, and 68° C. for 1 minute.
For PCR with the Taq DNA polymerase, 50 μl of a reaction solution containing 1× buffer included in Blend Taq (product of Toyobo), dNTPs (dATP, […], dCTP, dGTP) in an amount of 0.2 mM, primers in an amount of 75 pmol or 150 pmol (the same as above), 100 ng of Psychrobacter DNA, and 2.5 U of the enzyme mixed with the antibody was used. PCR was performed using a GeneAmp PCR system 9700 (Applied Biosystems) on the following schedule: preliminary reaction at 94° C. for 2 minutes, followed by 35 cycles, each cycle consisting of 94° C. for 30 seconds, 54° C. for 30 seconds, and 68° C. for 1 minute.
After the completion of each individual reaction, each of the resulting reaction solutions was analyzed using a DNA-1000 kit for MultiNA (produced by Shimadzu Corporation) to confirm amplified DNA fragments.

[2] = system: human genomic DNA (about 1.3 kb) with dUTP added; experiment: Evaluation of uracil (dUTP) sensitivity by PCR with dUTP added to the reaction; format: biochemical; settings: for Evaluation of dUTP resisitance on a 11-point scale: closer to 0 = stronger sensitivity to dUTP, closer to 10 = lower sensitivity, summary of Examples 1 to 3; for dUTP resistance: dUTP added to 0.5, 5, 50, 100, 200 μM, about 1.3 kb, 30 cycles, 1 U enzyme; for PCR products on addition of dUTP: some amount of dUTP added
Summary of the method: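 Each enzyme (1 U) amplified about 1.3 kb from 10 ng human genomic DNA in KOD-Plus-Ver. 2 buffer with 1.5 mM MgSO4 and 0.2 mM dNTPs. dUTP was added at final 0.5, 5, 50, 100 and 200 μM, over 30 cycles of 98/65/68° C. Sensitivity is the dUTP level still yielding product on ethidium bromide-stained agarose gel.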

## KOD Y7A/V93K: modified KOD DNA polymerase with Y7A and V93K
[1]
  amplification with inosine-containing primers: stable amplification was confirmed
[2]
  Evaluation of dUTP resisitance on a 11-point scale: 8
  dUTP resistance: >200 µM

## KOD N210D/Y7A/P36H: KOD N210D (exo(−)) mutant with Y7A and P36H
[1]
  amplification with inosine-containing primers: stable amplification was confirmed
[2]
  Evaluation of dUTP resisitance on a 11-point scale: 10
  dUTP resistance: >200 µM

## KOD Y7A/P36H: modified KOD DNA polymerase with Y7A and P36H
[1]
  amplification with inosine-containing primers: stable amplification was confirmed
[2]
  Evaluation of dUTP resisitance on a 11-point scale: 8
  dUTP resistance: >200 µM

B1: KOD P36R: modified KOD DNA polymerase with P36R (protein, listed as Thermococcus kodakaraensis)
chain: MILDTDYITEDGKPVIRIFKKENGEFKIEYDRTFERYFYALLKDDSAIEEVKKITAERHGTVVTVKRVEKVQKKFLGRPVEVWKLYFTHPQDVPAIRDKIREHPAVIDIYEYDIPFAKRYLIDKGLVPMEGDEELKMLAFDIETLYHEGEEFAEGPILMISYADEEGARVITWKNVDLPYVDVVSTEREMIKRFLRVVKEKDPDVLITYNGDNFDFAYLKKRCEKLGINFALGRDGSEPKIQRMGDRFAVEVKGRIHFDLYPVIRRTINLPTYTLEAVYEAVFGQPKEKVYAEEITTAWETGENLERVARYSMEDAKVTYELGKEFLPMEAQLSRLIGQSLWDVSRSSTGNLVEWFLLRKAYERNELAPNKPDEKELARRRQSYEGGYVKEPERGLWENIVYLDFRSLYPSIIITHNVSPDTLNREGCKEYDVAPQVGHRFCKDFPGFIPSLLGDLLEERQKIKKKMKATIDPIERKLLDYRQRAIKILANSYYGYYGYARARWYCKECAESVTAWGREYITMTIKEIEEKYGFKVIYSDTDGFFATIPGADAETVKKKAMEFLKYINAKLPGALELEYEGFYKRGFFVTKKKYAVIDEEGKITTRGLEIVRRDWSEIAKETQARVLEALLKDGDVEKAVRIVKEVTEKLSKYEVPPEKLVIHEQITRDLKDYKATGPHVAVAKRLAARGVKIRPGTVISYIVLKGSGRIGDRAIPFDEFDPTKHKYDAEYYIENQVLPAVERILRAFGYRKEDLRYQKTRQVGLSAWLKPKGT
[2]
  Evaluation of dUTP resisitance on a 11-point scale: 5
  dUTP resistance: >200 µM
  PCR products on addition of dUTP: PCR products were confirmed

B2: KOD P36H/V93K: modified KOD DNA polymerase with P36H and V93K (protein, listed as Thermococcus kodakaraensis)
chain: MILDTDYITEDGKPVIRIFKKENGEFKIEYDRTFEHYFYALLKDDSAIEEVKKITAERHGTVVTVKRVEKVQKKFLGRPVEVWKLYFTHPQDKPAIRDKIREHPAVIDIYEYDIPFAKRYLIDKGLVPMEGDEELKMLAFDIETLYHEGEEFAEGPILMISYADEEGARVITWKNVDLPYVDVVSTEREMIKRFLRVVKEKDPDVLITYNGDNFDFAYLKKRCEKLGINFALGRDGSEPKIQRMGDRFAVEVKGRIHFDLYPVIRRTINLPTYTLEAVYEAVFGQPKEKVYAEEITTAWETGENLERVARYSMEDAKVTYELGKEFLPMEAQLSRLIGQSLWDVSRSSTGNLVEWFLLRKAYERNELAPNKPDEKELARRRQSYEGGYVKEPERGLWENIVYLDFRSLYPSIIITHNVSPDTLNREGCKEYDVAPQVGHRFCKDFPGFIPSLLGDLLEERQKIKKKMKATIDPIERKLLDYRQRAIKILANSYYGYYGYARARWYCKECAESVTAWGREYITMTIKEIEEKYGFKVIYSDTDGFFATIPGADAETVKKKAMEFLKYINAKLPGALELEYEGFYKRGFFVTKKKYAVIDEEGKITTRGLEIVRRDWSEIAKETQARVLEALLKDGDVEKAVRIVKEVTEKLSKYEVPPEKLVIHEQITRDLKDYKATGPHVAVAKRLAARGVKIRPGTVISYIVLKGSGRIGDRAIPFDEFDPTKHKYDAEYYIENQVLPAVERILRAFGYRKEDLRYQKTRQVGLSAWLKPKGT
[2]
  Evaluation of dUTP resisitance on a 11-point scale: 7
  dUTP resistance: >200 µM

B3: KOD V93R: modified KOD DNA polymerase with V93R (protein, listed as Thermococcus kodakaraensis)
chain: MILDTDYITEDGKPVIRIFKKENGEFKIEYDRTFEPYFYALLKDDSAIEEVKKITAERHGTVVTVKRVEKVQKKFLGRPVEVWKLYFTHPQDRPAIRDKIREHPAVIDIYEYDIPFAKRYLIDKGLVPMEGDEELKMLAFDIETLYHEGEEFAEGPILMISYADEEGARVITWKNVDLPYVDVVSTEREMIKRFLRVVKEKDPDVLITYNGDNFDFAYLKKRCEKLGINFALGRDGSEPKIQRMGDRFAVEVKGRIHFDLYPVIRRTINLPTYTLEAVYEAVFGQPKEKVYAEEITTAWETGENLERVARYSMEDAKVTYELGKEFLPMEAQLSRLIGQSLWDVSRSSTGNLVEWFLLRKAYERNELAPNKPDEKELARRRQSYEGGYVKEPERGLWENIVYLDFRSLYPSIIITHNVSPDTLNREGCKEYDVAPQVGHRFCKDFPGFIPSLLGDLLEERQKIKKKMKATIDPIERKLLDYRQRAIKILANSYYGYYGYARARWYCKECAESVTAWGREYITMTIKEIEEKYGFKVIYSDTDGFFATIPGADAETVKKKAMEFLKYINAKLPGALELEYEGFYKRGFFVTKKKYAVIDEEGKITTRGLEIVRRDWSEIAKETQARVLEALLKDGDVEKAVRIVKEVTEKLSKYEVPPEKLVIHEQITRDLKDYKATGPHVAVAKRLAARGVKIRPGTVISYIVLKGSGRIGDRAIPFDEFDPTKHKYDAEYYIENQVLPAVERILRAFGYRKEDLRYQKTRQVGLSAWLKPKGT
[2]
  Evaluation of dUTP resisitance on a 11-point scale: 5
  dUTP resistance: >200 µM
  PCR products on addition of dUTP: PCR products were confirmed

B4: KOD V93Q: modified KOD DNA polymerase with V93Q (protein, listed as Thermococcus kodakaraensis)
chain: MILDTDYITEDGKPVIRIFKKENGEFKIEYDRTFEPYFYALLKDDSAIEEVKKITAERHGTVVTVKRVEKVQKKFLGRPVEVWKLYFTHPQDQPAIRDKIREHPAVIDIYEYDIPFAKRYLIDKGLVPMEGDEELKMLAFDIETLYHEGEEFAEGPILMISYADEEGARVITWKNVDLPYVDVVSTEREMIKRFLRVVKEKDPDVLITYNGDNFDFAYLKKRCEKLGINFALGRDGSEPKIQRMGDRFAVEVKGRIHFDLYPVIRRTINLPTYTLEAVYEAVFGQPKEKVYAEEITTAWETGENLERVARYSMEDAKVTYELGKEFLPMEAQLSRLIGQSLWDVSRSSTGNLVEWFLLRKAYERNELAPNKPDEKELARRRQSYEGGYVKEPERGLWENIVYLDFRSLYPSIIITHNVSPDTLNREGCKEYDVAPQVGHRFCKDFPGFIPSLLGDLLEERQKIKKKMKATIDPIERKLLDYRQRAIKILANSYYGYYGYARARWYCKECAESVTAWGREYITMTIKEIEEKYGFKVIYSDTDGFFATIPGADAETVKKKAMEFLKYINAKLPGALELEYEGFYKRGFFVTKKKYAVIDEEGKITTRGLEIVRRDWSEIAKETQARVLEALLKDGDVEKAVRIVKEVTEKLSKYEVPPEKLVIHEQITRDLKDYKATGPHVAVAKRLAARGVKIRPGTVISYIVLKGSGRIGDRAIPFDEFDPTKHKYDAEYYIENQVLPAVERILRAFGYRKEDLRYQKTRQVGLSAWLKPKGT
[2]
  Evaluation of dUTP resisitance on a 11-point scale: 3
  dUTP resistance: 100 µM
  PCR products on addition of dUTP: PCR products were confirmed

B5: KOD V93K: modified KOD DNA polymerase with V93K (protein, listed as Thermococcus kodakaraensis)
chain: MILDTDYITEDGKPVIRIFKKENGEFKIEYDRTFEPYFYALLKDDSAIEEVKKITAERHGTVVTVKRVEKVQKKFLGRPVEVWKLYFTHPQDKPAIRDKIREHPAVIDIYEYDIPFAKRYLIDKGLVPMEGDEELKMLAFDIETLYHEGEEFAEGPILMISYADEEGARVITWKNVDLPYVDVVSTEREMIKRFLRVVKEKDPDVLITYNGDNFDFAYLKKRCEKLGINFALGRDGSEPKIQRMGDRFAVEVKGRIHFDLYPVIRRTINLPTYTLEAVYEAVFGQPKEKVYAEEITTAWETGENLERVARYSMEDAKVTYELGKEFLPMEAQLSRLIGQSLWDVSRSSTGNLVEWFLLRKAYERNELAPNKPDEKELARRRQSYEGGYVKEPERGLWENIVYLDFRSLYPSIIITHNVSPDTLNREGCKEYDVAPQVGHRFCKDFPGFIPSLLGDLLEERQKIKKKMKATIDPIERKLLDYRQRAIKILANSYYGYYGYARARWYCKECAESVTAWGREYITMTIKEIEEKYGFKVIYSDTDGFFATIPGADAETVKKKAMEFLKYINAKLPGALELEYEGFYKRGFFVTKKKYAVIDEEGKITTRGLEIVRRDWSEIAKETQARVLEALLKDGDVEKAVRIVKEVTEKLSKYEVPPEKLVIHEQITRDLKDYKATGPHVAVAKRLAARGVKIRPGTVISYIVLKGSGRIGDRAIPFDEFDPTKHKYDAEYYIENQVLPAVERILRAFGYRKEDLRYQKTRQVGLSAWLKPKGT
[2]
  Evaluation of dUTP resisitance on a 11-point scale: 6
  dUTP resistance: >200 µM
  PCR products on addition of dUTP: PCR products were confirmed
